In article PMC5412564 (The Journal of Cell Biology, 2017):

B1: 549-SNAP-VopL (domain or fragment)
chain: LSIKHGSSIPPAPPLPGAIPPAPPLNLSKGAPKSSSNSLDSVNEDHSKLMEQIRQGVKLKSATKSLSADKSSADAHSKLMEELLTGGRKLKKVATSDIPAPPPLPSASTSKSPDSRNALLSEIAGFSKDRLRKTGSLETLNSSQSKDKESFEPTTHERLLSEDLFKQSPKLSEQELDELANNLADYLFQAADIDWHQVISEKTRGLTTEEMAKSEHRYVQAFCREILKYPDCYKSADVASPESPKSGGGSVIDVALKRLQTGRERLFTTTDEKGNRELKKGDAILESAINAARMAISTEEKNTILSNNVKSATFEVFCELPCMDGFAEQNGKTAFYALRAGFYSAFKNTDTAKQDITKFMKDNLQAGFSGYSYQGLTNRVAQLEAQLAALSAKLS
modifications: SNAP-Surface 549 on the SNAP-tag (labeling efficiency ~75%)

Experiments:
[1] = target: 549-SNAP-VopF (Vibrio cholera (so in the source)); test: photobleaching step counting of single molecules
[2] = target: the molecule itself; test: photobleaching step counting of single molecules

| Molecule | stoichiometry N [1] | stoichiometry N [2] |
| --- | --- | --- |
| 549-SNAP-VopF (domain or fragment) | 2 | – |
| B1 | – | 2 |
